Several values for one entry are separate records, joined by “and”; a condition that tells them apart may be missing. Equal entries are not always repeated. Where two headings read alike, the source gives them in different places.
Tests used:
[1] = assay type: in vivo, adolescent patients; conditions: for Kidneys projected CAD, median (range) / Kidneys projected CAD, mean (SD): coefficient × 4 × 7.4
[2] = Observed, adult GEP-NET N=47, historical data; ref NETTER-1 and Erasmus studies; cited from earlier work
[3] = in vivo
[4] = Blood pharmacokinetics after one administration, population approach; assay type: in vivo, adolescent and adult patients
[5] = ref NETTER-1, cited from earlier work
[6] = Laboratory abnormalities during Cycle 1, safety set; set-up: species or system adolescent patients; conditions: in vivo
[7] = Observed, adolescent GEP-NET and PPGL N=11
[8] = adolescents, 11 patients, population approach

C[C@@H](O)[C@H](NC(=O)[C@@H]1CSSC[C@H](NC(=O)[C@@H](Cc2ccccc2)NC(=O)CN2CCN(CC(=O)O)CCN(CC(=O)O)CCN(CC(=O)O)CC2)C(=O)N[C@@H](Cc2ccc(O)cc2)C(=O)N[C@H](Cc2c[nH]c3ccccc23)C(=O)N[C@@H](CCCCN)C(=O)N[C@@H]([C@@H](C)O)C(=O)N1)C(=O)O [177Lu-DOTATATE, [^177Lu]Lu-DOTA-TATE, metal not drawn]
Kidneys absorbed dose coefficient, mean (SD) ([1]; All patients): 0.78 ± 0.28 Gy/GBq and 0.78 (0.28) Gy/GBq | Kidneys absorbed dose coefficient, median (range) ([1]; All patients): 0.71 (0.46–1.3) Gy/GBq | Red marrow (blood) absorbed dose coefficient, mean (SD) ([1]; All patients): 0.026 ± 0.0050 Gy/GBq and 0.026 (0.0050) Gy/GBq | Red marrow (blood) absorbed dose coefficient, median (range) ([1]; All patients): 0.026 (0.019–0.035) Gy/GBq | Red marrow (blood) projected CAD, mean (SD) ([1]; All patients): 0.78 ± 0.15 Gy and 0.78 (0.15) Gy | Red marrow (blood) projected CAD, median (range) ([1]; All patients): 0.76 (0.55–1.0) Gy | Spleen absorbed dose coefficient, mean (SD) ([1]; All patients): 0.74 (0.27) Gy/GBq | Spleen absorbed dose coefficient, median (range) ([1]; All patients): 0.72 (0.28–1.1) Gy/GBq | Spleen projected CAD, mean (SD) ([1]; All patients): 22 (8.1) Gy | Spleen projected CAD, median (range) ([1]; All patients): 21 (8.3–34) Gy | Total body absorbed dose coefficient, mean (SD) ([1]; All patients): 0.040 (0.0095) Gy/GBq | Total body projected CAD, mean (SD) ([1]; All patients): 1.2 (0.28) Gy | Total body projected CAD, median (range) ([1]; All patients): 1.2 (0.66–1.6) Gy | Urinary bladder wall absorbed dose coefficient, mean (SD) ([1]; All patients): 0.55 (0.089) Gy/GBq | Urinary bladder wall absorbed dose coefficient, median (range) ([1]; All patients): 0.52 (0.47–0.68) Gy/GBq | Urinary bladder wall projected CAD, mean (SD) ([1]; All patients): 16 (2.6) Gy | Urinary bladder wall projected CAD, median (range) ([1]; All patients): 15 (14–20) Gy | Tumour absorbed dose coefficient, mean (SD) ([1]; All patients, 18 lesions): 2.0 (1.2) Gy/GBq | Tumour absorbed dose coefficient, median (range) ([1]; All patients, 18 lesions): 1.9 (0.17–5.1) Gy/GBq | Tumour projected CAD, mean (SD) ([1]; All patients, 18 lesions): 58 (37) Gy | Tumour projected CAD, median (range) ([1]; All patients, 18 lesions): 55 (4.9–150) Gy | Pituitary absorbed dose coefficient, mean (SD) ([1]; All patients, n=9): 1.1 (0.43) Gy/GBq | Pituitary absorbed dose coefficient, median (range) ([1]; All patients, n=9): 1.0 (0.61–1.9) Gy/GBq | Pituitary projected CAD, mean (SD) ([1]; All patients, n=9): 33 ± 13 Gy and 33 (13) Gy | Pituitary projected CAD, median (range) ([1]; All patients, n=9): 30 (18–56) Gy | Kidneys projected CAD, median (range) ([1]; All patients): 21 (14–40) Gy | Kidneys absorbed dose coefficient, mean (SD) ([1]; GEP-NET): 0.71 (0.25) Gy/GBq | Kidneys absorbed dose coefficient, median (range) ([1]; GEP-NET): 0.71 (0.46–0.96) Gy/GBq | Red marrow (blood) absorbed dose coefficient, mean (SD) ([1]; GEP-NET): 0.024 (0.0035) Gy/GBq | Red marrow (blood) absorbed dose coefficient, median (range) ([1]; GEP-NET): 0.024 (0.019–0.027) Gy/GBq | Red marrow (blood) projected CAD, mean (SD) ([1]; GEP-NET): 0.70 (0.10) Gy | Red marrow (blood) projected CAD, median (range) ([1]; GEP-NET): 0.72 (0.55–0.79) Gy | Spleen absorbed dose coefficient, mean (SD) ([1]; GEP-NET): 0.63 (0.39) Gy/GBq | Spleen absorbed dose coefficient, median (range) ([1]; GEP-NET): 0.55 (0.28–1.1) Gy/GBq | Spleen projected CAD, mean (SD) ([1]; GEP-NET): 19 (12) Gy | Spleen projected CAD, median (range) ([1]; GEP-NET): 16 (8.3–34) Gy | Total body absorbed dose coefficient, mean (SD) ([1]; GEP-NET): 0.040 (0.013) Gy/GBq | Total body absorbed dose coefficient, median (range) ([1]; GEP-NET): 0.040 (0.022–0.055) Gy/GBq | Total body projected CAD, mean (SD) ([1]; GEP-NET): 1.2 (0.40) Gy | Total body projected CAD, median (range) ([1]; GEP-NET): 1.2 (0.66–1.6) Gy | Urinary bladder wall absorbed dose coefficient, mean (SD) ([1]; GEP-NET): 0.50 (0.034) Gy/GBq | Urinary bladder wall absorbed dose coefficient, median (range) ([1]; GEP-NET): 0.49 (0.47–0.54) Gy/GBq | Urinary bladder wall projected CAD, mean (SD) ([1]; GEP-NET): 15 (1.0) Gy | Urinary bladder wall projected CAD, median (range) ([1]; GEP-NET): 14 (14–16) Gy | Tumour absorbed dose coefficient, mean (SD) ([1]; GEP-NET, 8 lesions): 2.6 (1.2) Gy/GBq | Tumour absorbed dose coefficient, median (range) ([1]; GEP-NET, 8 lesions): 2.3 (1.4–5.1) Gy/GBq | Tumour projected CAD, mean (SD) ([1]; GEP-NET, 8 lesions): 76 ± 35 Gy and 76 (35) Gy | Tumour projected CAD, median (range) ([1]; GEP-NET, 8 lesions): 69 (41–150) Gy | Pituitary absorbed dose coefficient, mean (SD) ([1]; GEP-NET, n=3): 1.2 (0.43) Gy/GBq | Pituitary absorbed dose coefficient, median (range) ([1]; GEP-NET, n=3): 1.1 (0.93–1.7) Gy/GBq | Pituitary projected CAD, mean (SD) ([1]; GEP-NET, n=3): 37 (13) Gy | Pituitary projected CAD, median (range) ([1]; GEP-NET, n=3): 32 (28–51) Gy | Kidneys projected CAD, mean (SD) ([1]; GEP-NET): 21 (7.3) Gy | Kidneys projected CAD, median (range) ([1]; GEP-NET): 21 (14–28) Gy | Kidneys absorbed dose coefficient, mean (SD) ([1]; PPGL): 0.82 (0.32) Gy/GBq | Kidneys absorbed dose coefficient, median (range) ([1]; PPGL): 0.71 (0.55–1.3) Gy/GBq | Pituitary absorbed dose coefficient, mean (SD) ([1]; PPGL): 1.0 (0.45) Gy/GBq | Pituitary absorbed dose coefficient, median (range) ([1]; PPGL): 0.93 (0.61–1.9) Gy/GBq | Pituitary projected CAD, mean (SD) ([1]; PPGL): 31 (13) Gy | Pituitary projected CAD, median (range) ([1]; PPGL): 28 (18–56) Gy | Red marrow (blood) absorbed dose coefficient, mean (SD) ([1]; PPGL): 0.028 (0.0052) Gy/GBq | Red marrow (blood) absorbed dose coefficient, median (range) ([1]; PPGL): 0.029 (0.022–0.035) Gy/GBq | Red marrow (blood) projected CAD, mean (SD) ([1]; PPGL): 0.83 (0.16) Gy | Red marrow (blood) projected CAD, median (range) ([1]; PPGL): 0.87 (0.64–1.0) Gy | Spleen absorbed dose coefficient, mean (SD) ([1]; PPGL): 0.82 (0.17) Gy/GBq | Spleen absorbed dose coefficient, median (range) ([1]; PPGL): 0.81 (0.64–1.1) Gy/GBq | Spleen projected CAD, mean (SD) ([1]; PPGL): 24 (5.0) Gy | Spleen projected CAD, median (range) ([1]; PPGL): 24 (19–31) Gy | Total body absorbed dose coefficient, mean (SD) ([1]; PPGL): 0.041 (0.0073) Gy/GBq | Total body projected CAD, mean (SD) ([1]; PPGL): 1.2 (0.21) Gy | Total body projected CAD, median (range) ([1]; PPGL): 1.2 (0.97–1.5) Gy | Urinary bladder wall absorbed dose coefficient, mean (SD) ([1]; PPGL): 0.59 (0.096) Gy/GBq | Urinary bladder wall absorbed dose coefficient, median (range) ([1]; PPGL): 0.63 (0.47–0.68) Gy/GBq | Urinary bladder wall projected CAD, mean (SD) ([1]; PPGL): 17 (2.8) Gy | Urinary bladder wall projected CAD, median (range) ([1]; PPGL): 19 (14–20) Gy | Tumour absorbed dose coefficient, mean (SD) ([1]; PPGL, 10 lesions): 1.5 (1.1) Gy/GBq | Tumour absorbed dose coefficient, median (range) ([1]; PPGL, 10 lesions): 1.2 (0.17–3.3) Gy/GBq | Tumour projected CAD, mean (SD) ([1]; PPGL, 10 lesions): 44 ± 34 Gy and 44 (34) Gy | Tumour projected CAD, median (range) ([1]; PPGL, 10 lesions): 36 (4.9–98) Gy | Kidneys projected CAD, mean (SD) ([1]; PPGL): 24 (9.3) Gy | Kidneys projected CAD, median (range) ([1]; PPGL): 21 (16–40) Gy | Bone marrow Probability (%) >2 Gy [2]: 6% | Kidneys Probability (%) >29 Gy [2]: 13% | deaths by data cutoff [3]: no deaths | patients with AEs that resulted in infusion interruptions [3]: 18% | treatment-related nephrotoxicity [3]: no treatment-related nephrotoxicity was observed | AUClast, geometric mean (geometric CV%) [4, 7]: 41.00 (24.15) ng.h/mL | Cmax, geometric mean (geometric CV%) [4, 7]: 11.17 (33.04) ng/mL | Tmax, median (range) [4, 7]: 0.58 (0.50–0.77) hours | T½β, population value ([4]; adolescents): 36.9 h | AUCinf, overall mean ± SD [4, 8]: 35.84 ± 4.49 ng·h/mL | Cmax, overall mean ± SD [4, 8]: 10.33 ± 0.54 ng/mL | clearance, overall mean ± SD [4, 8]: 5.98 ± 0.69 L/h | AUClast, geometric mean (geometric CV%) ([5]; Observed, adult GEP-NET N=20): 30.08 (50.38) ng.h/mL | Cmax, geometric mean (geometric CV%) ([5]; Observed, adult GEP-NET N=20): 8.98 (73.28) ng/mL | Tmax, median (range) ([5]; Observed, adult GEP-NET N=20): 0.47 (0.25–1.17) hours | T½β ([5]; adults with GEP-NET): 59.1 h | Grade ≥ 3 biochemistry abnormalities [6]: No

— article PMC12397115 (European Journal of Nuclear Medicine and Molecular Imaging, 2025)
